B1: Tyrosine-protein phosphatase non-receptor type 1 (Homo sapiens), P18031 (parent)
chain: MEMEKEFEQIDKSGSWAAIYQDIRHEASDFPCRVAKLPKNKNRNRYRDVSPFDHSRIKLHQEDNDYINASLIKMEEAQRSYILTQGPLPNTCGHFWEMVWEQKSRGVVMLNRVMEKGSLKCAQYWPQKEEKEMIFEDTNLKLTLISEDIKSYYTVRQLELENLTTQETREILHFHYTTWPDFGVPESPASFLNFLFKVRESGSLSPEHGPVVVHCSAGIGRSGTFCLADTCLLLMDKRKDPSSVDIKKVLLEMRKFRMGLIQTADQLRFSYLAVIEGAKFIMGDSSVQDQWKELSHEDLEPPPEHIPPPPRPPKRILEPHNGKCREFFPNHQWVKEETQEDKDCPIKEEKGSPLNAAPYGIESMSQDTEVRSRVVGGSLRGAQAASPAKGEPSLPEKDEDHALSYWKPFLVNMCVATVLTAGAYLCYRFLFNSNT

Variants of: B1
Conditions: with src_human SRC

Variant	effect of a mutation on the interaction
MEMEKEFEQIDKSGSWAAIYQDIRHEASDFPCRVAKLPKNKNRNRYRDVSPFDHSRIKLHQEDNDYINASLIKMEEAQRSYILTQGPLPNTCGHFWEMVWEQKSRGVVMLNRVMEKGSLKCAQYWPQKEEKEMIFEDTNLKLTLISEDIKSYYTVRQLELENLTTQETREILHFHYTTWPDFGVPESPASFLNFLFKVRESGSLSPEHGPVVVHSSAGIGRSGTFCLADTCLLLMDKRKDPSSVDIKKVLLEMRKFRMGLIQTADQLRFSYLAVIEGAKFIMGDSSVQDQWKELSHEDLEPPPEHIPPPPRPPKRILEPHNGKCREFFPNHQWVKEETQEDKDCPIKEEKGSPLNAAPYGIESMSQDTEVRSRVVGGSLRGAQAASPAKGEPSLPEKDEDHALSYWKPFLVNMCVATVLTAGAYLCYRFLFNSNT [C215S]	disrupting interaction

Reference: IntAct's records for PubMed 17974954
